Laboratory results reported in article PMC4120840.

Substrate: Nc1ncnc2c1ncn2[C@@H]1O[C@H](COP(=O)(O)OP(=O)(O)OP(=O)(O)O)[C@@H](O)[C@H]1O
Assay: purified protein
Type: biochemical, Homo sapiens
Conditions: MgCl2 UBA3 nucleotide binding pocket

B1: UBA3 (NEDD8 activating enzyme, NAE) (Homo sapiens) (protein)
chain: ADGEEPEKKRRRIEELLAEKMAVDGGCGDTGDWEGRWNHVKKFLERSGPFTHPDFEPSTESLQFLLDTCKVLVIGAGGLGCELLKNLALSGFRQIHVIDMDTIDVSNLNRQFLFRPKDIGRPKAEVAAEFLNDRVPNCNVVPHFNKIQDFNDTFYRQFHIIVCGLDSIIARRWINGMLISLLNYEDGVLDPSSIVPLIDGGTEGFKGNARVILPGMTACIECTLELYPPQVNFPMCTIASMPRLPEHCIEYVRMLQWPKEQPFGEGVPLDGDDPEHIQWIFQKSLERASQYNIRGVTYRLTQGVVKRIIPAVASTNAVIAAVCATEVFKIATSAYIPLNNYLVFNDVDGLYTYTFEAERKENCPACSQLPQNIQFSPSAKLQEVLDYLTNSASLQMKSPAITATLEGKNRTLYLQSVTSIEERTRPNLSKTLKELGLVDGQELAVADVTTPQTVLFKLHFTS
  Km: 243 µM

B2: UBA3 A171T (NEDD8 activating enzyme, NAE (UBA3 A171T)) (Homo sapiens; A171T) (protein)
chain: ADGEEPEKKRRRIEELLAEKMAVDGGCGDTGDWEGRWNHVKKFLERSGPFTHPDFEPSTESLQFLLDTCKVLVIGAGGLGCELLKNLALSGFRQIHVIDMDTIDVSNLNRQFLFRPKDIGRPKAEVAAEFLNDRVPNCNVVPHFNKIQDFNDTFYRQFHIIVCGLDSIITRRWINGMLISLLNYEDGVLDPSSIVPLIDGGTEGFKGNARVILPGMTACIECTLELYPPQVNFPMCTIASMPRLPEHCIEYVRMLQWPKEQPFGEGVPLDGDDPEHIQWIFQKSLERASQYNIRGVTYRLTQGVVKRIIPAVASTNAVIAAVCATEVFKIATSAYIPLNNYLVFNDVDGLYTYTFEAERKENCPACSQLPQNIQFSPSAKLQEVLDYLTNSASLQMKSPAITATLEGKNRTLYLQSVTSIEERTRPNLSKTLKELGLVDGQELAVADVTTPQTVLFKLHFTS
  Km: 1006 µM
